Laboratory results from patent publication US20160272683A1 (Novo Nordisk, published 2016).
Numbered stars: 1 amine (or outer) side, 2 acyl side, 3 side chain; on linkers, the order of the positions; unused ones are H or OH. Side chains are listed from the residue outwards. Ends that are not written are not given here. * marks the point of attachment. C20 diacid = O=C(O)CCCCCCCCCCCCCCCCCCC(=O)*; γGlu = O=C(O)[C@H](CCC(=O)[*:2])N[*:1]

T1: human amylin 3(a) receptor (human calcitonin receptor co-expressed with RAMP-3) on BHK570/CRE-luc cells (human, UniProt P30988 25-474; O60896 24-148)
T1 sequence (looked up) 1: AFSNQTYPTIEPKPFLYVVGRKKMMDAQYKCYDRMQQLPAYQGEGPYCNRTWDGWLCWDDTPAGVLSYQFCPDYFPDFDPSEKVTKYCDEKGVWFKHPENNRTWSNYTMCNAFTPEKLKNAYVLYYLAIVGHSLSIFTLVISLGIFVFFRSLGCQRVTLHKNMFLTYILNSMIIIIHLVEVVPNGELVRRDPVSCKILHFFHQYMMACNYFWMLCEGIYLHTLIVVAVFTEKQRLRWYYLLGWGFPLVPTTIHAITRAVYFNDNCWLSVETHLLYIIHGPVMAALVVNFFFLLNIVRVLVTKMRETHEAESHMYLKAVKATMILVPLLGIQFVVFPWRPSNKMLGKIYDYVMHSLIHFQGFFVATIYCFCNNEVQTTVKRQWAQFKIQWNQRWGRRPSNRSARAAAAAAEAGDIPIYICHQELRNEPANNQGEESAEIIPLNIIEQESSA
T1 sequence (looked up) 2: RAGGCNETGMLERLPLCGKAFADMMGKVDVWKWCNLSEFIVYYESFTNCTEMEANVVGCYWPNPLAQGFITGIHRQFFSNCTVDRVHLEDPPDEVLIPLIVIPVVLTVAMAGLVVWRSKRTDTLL

T2: human calcitonin receptor on BHK570/CRE-luc cells (human, UniProt P30988 25-474)
T2 sequence (looked up): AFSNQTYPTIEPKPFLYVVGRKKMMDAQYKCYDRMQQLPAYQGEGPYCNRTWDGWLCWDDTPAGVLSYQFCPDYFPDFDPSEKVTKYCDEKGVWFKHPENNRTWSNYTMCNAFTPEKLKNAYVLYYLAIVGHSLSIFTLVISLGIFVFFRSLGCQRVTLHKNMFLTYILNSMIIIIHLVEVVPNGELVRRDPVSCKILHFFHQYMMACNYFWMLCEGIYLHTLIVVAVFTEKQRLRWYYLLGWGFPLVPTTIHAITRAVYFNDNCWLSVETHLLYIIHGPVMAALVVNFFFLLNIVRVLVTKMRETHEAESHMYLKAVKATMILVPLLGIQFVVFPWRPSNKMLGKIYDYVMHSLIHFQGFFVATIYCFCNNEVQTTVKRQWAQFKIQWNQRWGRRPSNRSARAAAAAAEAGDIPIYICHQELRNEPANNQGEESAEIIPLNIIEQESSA

B1: [des1, 4K(C20 diacid-gGlu), 30S, 31G]mimylin (peptide)
peptide: ASK([γGlu-C20 diacid])LSTAALGRLSAELHELATLPRTETGSGSP-NH2
modifications: N-terminus assumed
SMILES: CC(C)C[C@H](NC(=O)[C@H](C)NC(=O)[C@H](C)NC(=O)[C@@H](NC(=O)[C@H](CO)NC(=O)[C@H](CC(C)C)NC(=O)[C@H](CCCCNC(=O)CC[C@H](NC(=O)CCCCCCCCCCCCCCCCCCC(=O)O)C(=O)O)NC(=O)[C@H](CO)NC(=O)[C@H](C)N)[C@@H](C)O)C(=O)NCC(=O)N[C@@H](CCCNC(=N)N)C(=O)N[C@@H](CC(C)C)C(=O)N[C@@H](CO)C(=O)N[C@@H](C)C(=O)N[C@@H](CCC(=O)O)C(=O)N[C@@H](CC(C)C)C(=O)N[C@@H](Cc1c[nH]cn1)C(=O)N[C@@H](CCC(=O)O)C(=O)N[C@@H](CC(C)C)C(=O)N[C@@H](C)C(=O)N[C@H](C(=O)N[C@@H](CC(C)C)C(=O)N1CCC[C@H]1C(=O)N[C@@H](CCCNC(=N)N)C(=O)N[C@H](C(=O)N[C@@H](CCC(=O)O)C(=O)N[C@H](C(=O)NCC(=O)N[C@@H](CO)C(=O)NCC(=O)N[C@@H](CO)C(=O)N1CCC[C@H]1C(N)=O)[C@@H](C)O)[C@@H](C)O)[C@@H](C)O
B2: [des1, 16K(C20 diacid-gGlu), 30S, 31G]mimylin (peptide)
peptide: ASELSTAALGRLSAK([γGlu-C20 diacid])LHELATLPRTETGSGSP-NH2
modifications: N-terminus assumed
SMILES: CC(C)C[C@H](NC(=O)[C@H](C)NC(=O)[C@H](C)NC(=O)[C@@H](NC(=O)[C@H](CO)NC(=O)[C@H](CC(C)C)NC(=O)[C@H](CCC(=O)O)NC(=O)[C@H](CO)NC(=O)[C@H](C)N)[C@@H](C)O)C(=O)NCC(=O)N[C@@H](CCCNC(=N)N)C(=O)N[C@@H](CC(C)C)C(=O)N[C@@H](CO)C(=O)N[C@@H](C)C(=O)N[C@@H](CCCCNC(=O)CC[C@H](NC(=O)CCCCCCCCCCCCCCCCCCC(=O)O)C(=O)O)C(=O)N[C@@H](CC(C)C)C(=O)N[C@@H](Cc1c[nH]cn1)C(=O)N[C@@H](CCC(=O)O)C(=O)N[C@@H](CC(C)C)C(=O)N[C@@H](C)C(=O)N[C@H](C(=O)N[C@@H](CC(C)C)C(=O)N1CCC[C@H]1C(=O)N[C@@H](CCCNC(=N)N)C(=O)N[C@H](C(=O)N[C@@H](CCC(=O)O)C(=O)N[C@H](C(=O)NCC(=O)N[C@@H](CO)C(=O)NCC(=O)N[C@@H](CO)C(=O)N1CCC[C@H]1C(N)=O)[C@@H](C)O)[C@@H](C)O)[C@@H](C)O
B3: [des1, 19K(C20 diacid-gGlu), 30S, 31G]mimylin (peptide)
peptide: ASELSTAALGRLSAELHK([γGlu-C20 diacid])LATLPRTETGSGSP-NH2
modifications: N-terminus assumed
SMILES: CC(C)C[C@H](NC(=O)[C@H](C)NC(=O)[C@H](C)NC(=O)[C@@H](NC(=O)[C@H](CO)NC(=O)[C@H](CC(C)C)NC(=O)[C@H](CCC(=O)O)NC(=O)[C@H](CO)NC(=O)[C@H](C)N)[C@@H](C)O)C(=O)NCC(=O)N[C@@H](CCCNC(=N)N)C(=O)N[C@@H](CC(C)C)C(=O)N[C@@H](CO)C(=O)N[C@@H](C)C(=O)N[C@@H](CCC(=O)O)C(=O)N[C@@H](CC(C)C)C(=O)N[C@@H](Cc1c[nH]cn1)C(=O)N[C@@H](CCCCNC(=O)CC[C@H](NC(=O)CCCCCCCCCCCCCCCCCCC(=O)O)C(=O)O)C(=O)N[C@@H](CC(C)C)C(=O)N[C@@H](C)C(=O)N[C@H](C(=O)N[C@@H](CC(C)C)C(=O)N1CCC[C@H]1C(=O)N[C@@H](CCCNC(=N)N)C(=O)N[C@H](C(=O)N[C@@H](CCC(=O)O)C(=O)N[C@H](C(=O)NCC(=O)N[C@@H](CO)C(=O)NCC(=O)N[C@@H](CO)C(=O)N1CCC[C@H]1C(N)=O)[C@@H](C)O)[C@@H](C)O)[C@@H](C)O

Columns and labels:
[1] = target: T1, human amylin 3(a) receptor (human …); test: cell-based or functional assay
[2] = target: T2, human calcitonin receptor on …; test: cell-based or functional assay

Row | hAmylin-R funct. EC50 (pM), tested with HSA [1] [pM] | hCTR funct. EC50 (pM), tested with HSA [2] [pM] | Binder
1 | 74 | 30 | B1
2 | 57 | 48 | B2
3 | 49 | 28 | B3
